In FireProtDB (doi:10.1110/ps.8.8.1623):
Values joined by “and” are separate entries in the source; they are usually repeats but may differ in a detail not shown here. Identical values can stand only once.

Conditions: Escherichia coli (strain K12), pH 7.8, 25 °C, Urea, Potassium phosphate 100 mM, transition: 3, whole UniProt chain shown

B1: Tryptophan synthase alpha chain wild type, P0A877 (protein)
chain: MERYESLFAQLKERKEGAFVPFVTLGDPGIEQSLKIIDTLIEAGADALELGIPFSDPLADGPTIQNATLRAFAAGVTPAQCFEMLALIRQKHPTIPIGLLMYANLVFNKGIDEFYAQCEKVGVDSVLVADVPVEESAPFRQAALRHNVAPIFICPPNADDDLLRQIASYGRGYTYLLSRAGVTGAENRAALPLNHLVAKLKEYNAAPPLQGFGISAPDQVKAAIDAGAAGAISGSAIVKIIEQHINEPEKMLAALKVFVQPMKAATRS
unfolding free energy (CD): 6.6 kcal/mol and 4.6 kcal/mol and 4.4 kcal/mol
denaturant m value (Fluorescence): 2.2 kcal/mol/M and 1.1 kcal/mol/M and 0.83 kcal/mol/M
unfolding free energy (Fluorescence): 6 kcal/mol and 4.5 kcal/mol and 4.9 kcal/mol
